B1: DnaAΔ129 lacking the N-terminal 129 residues (domain or fragment)
chain: SNVNVKHTFDNFVEGKSNQLARAAARQVADNPGGAYNPLFLYGGTGLGKTHLLHAVGNGIMARKPNAKVVYMHSERFVQDMVKALQNNAIEEFKRYYRSVDALLIDDIQFFANKERSQEEFFHTFNALLEGNQQIILTSDRYPKEINGVEDRLKSRFGWGLTVAIEPPELETRVAILMKKADENDIRLPGEVAFFIAKRLRSNVRELEGALNRVIANANFTGRAITIDFVREALRDLLALQEKLVTIDNIQKTVAEYYKIKVADLLSKRRSRSVARPRQMAMALAKELTNHSLPEIGDAFGGRDHTTVLHACRKIEQLREESHDIKEDFSNLIRTLSS
B2: DnaA protein (natural protein)
chain: MSLSLWQQCLARLQDELPATEFSMWIRPLQAELSDNTLALYAPNRFVLDWVRDKYLNNINGLLTSFCGADAPQLRFEVGTKPVTQTPQAAVTSNVAAPAQVAQTQPQRAAPSTRSGWDNVPAPAEPTYRSNVNVKHTFDNFVEGKSNQLARAAARQVADNPGGAYNPLFLYGGTGLGKTHLLHAVGNGIMARKPNAKVVYMHSERFVQDMVKALQNNAIEEFKRYYRSVDALLIDDIQFFANKERSQEEFFHTFNALLEGNQQIILTSDRYPKEINGVEDRLKSRFGWGLTVAIEPPELETRVAILMKKADENDIRLPGEVAFFIAKRLRSNVRELEGALNRVIANANFTGRAITIDFVREALRDLLALQEKLVTIDNIQKTVAEYYKIKVADLLSKRRSRSVARPRQMAMALAKELTNHSLPEIGDAFGGRDHTTVLHACRKIEQLREESHDIKEDFSNLIRTLSS
B3: DnaAΔ220-294 lacking residues 220–294 (natural protein)
chain: MSLSLWQQCLARLQDELPATEFSMWIRPLQAELSDNTLALYAPNRFVLDWVRDKYLNNINGLLTSFCGADAPQLRFEVGTKPVTQTPQAAVTSNVAAPAQVAQTQPQRAAPSTRSGWDNVPAPAEPTYRSNVNVKHTFDNFVEGKSNQLARAAARQVADNPGGAYNPLFLYGGTGLGKTHLLHAVGNGIMARKPNAKVVYMHSERFVQDMVKALQNNAIEPPELETRVAILMKKADENDIRLPGEVAFFIAKRLRSNVRELEGALNRVIANANFTGRAITIDFVREALRDLLALQEKLVTIDNIQKTVAEYYKIKVADLLSKRRSRSVARPRQMAMALAKELTNHSLPEIGDAFGGRDHTTVLHACRKIEQLREESHDIKEDFSNLIRTLSS

Target: ribosomal protein L2 (E. coli, UniProt P60422 1-273)
Experiment: ELISA

Binder | fold reduction of the interaction against wild-type DnaA | binding result
B1 | ~4 fold | 
B2 |  | binds
B3 |  | binds
